{"source": "paper PMC7247549", "about": "“Biochemical Convergence of Mitochondrial Hsp70 System Specialized in Iron–Sulfur Cluster Biogenesis” (International Journal of Molecular Sciences, 2020)", "molecules": {"B1": {"name": "Ssq1 (Saccharomyces cerevisiae S288C) (protein)", "chain": "PQLTKKVIGIDLGTTNSAVAYIRDSNDKKSATIIENDEGQRTTPSIVAFDVKSSPQNKDQMKTLVGMAAKRQNAINSENTFFATKRLIGRAFNDKEVQRDMAVMPYKIVKCESNGQAYLSTSNGLIQSPSQIASILLKYLKQTSEEYLGEKVNLAVITVPAYFNDSQRQATKDAGKLAGLNVLRVINEPTAAALSFGIDDKRNNGLIAVYDLGGGTFDISILDIEDGVFEVRATNGDTHLGGEDFDNVIVNYIIDTFIHENPEITREEITKNRETMQRLKDVSERAKIDLSHVKKTFIELPFVYKSKHLRVPMTEEELDNMTLSLINRTIPPVKQALKDADIEPEDIDEVILVGGMTRMPKIRSVVKDLFGKSPNSSVNPDETVALGAAIQGGILSGEIKNVLLLDVTPLTLGIETFGGAFSPLIPRNTTVPVKKTEIFSTGVDGQAGVDIKVFQGERGLVRNNKLIGDLKLTGITPLPKGIPQIYVTFDIDADGIINVSAAEKSSGKQQSITVIPNSGLSEEEIAKLIEEANANRAQDNLIRQRLELISKADIMISDTENLFKRYEKLISSEKEYSNIVEDIKALRQAIKNFKANENDMSIDVNGIKKATDALQGRALKLFQSATKNQQNQGK"}, "B2": {"name": "Hsc20 (natural protein)", "chain": "TSTFYELFPKTFPKKLPIWTIDQSRLRKEYRQLQAQHHPDMAQQGSEQSSTLNQAYHTLKDPLRRSQYMLKLLRNIDLTQEQTSNEVTTSDPQLLLKVLDIHDELSQMDDEAGVKLLEKQNKERIQDIEAQLGQCYNDKDYAAAVKLTVELKYWYNLAKAFKDWAPGKQLEMNH"}, "B3": {"name": "HscA (Escherichia coli K-12) (protein)", "chain": "MALLQISEPGLSAAPHQRRLAAGIDLGTTNSLVATVRSGQAETLADHEGRHLLPSVVHYQQQGHSVGYDARTNAALDTANTISSVKRLMGRSLADIQQRYPHLPYQFQASENGLPMIETAAGLLNPVRVSADILKALAARATEALAGELDGVVITVPAYFDDAQRQGTKDAARLAGLHVLRLLNEPTAAAIAYGLDSGQEGVIAVYDLGGGTFDISILRLSRGVFEVLATGGDSALGGDDFDHLLADYIREQAGIPDRSDNRVQRELLDAAIAAKIALSDADSVTVNVAGWQGEISREQFNELIAPLVKRTLLACRRALKDAGVEADEVLEVVMVGGSTRVPLVRERVGEFFGRPPLTSIDPDKVVAIGAAIQADILVGNKPDSEMLLLDVIPLSLGLETMGGLVEKVIPRNTTIPVARAQDFTTFKDGQTAMSIHVMQGERELVQDCRSLARFALRGIPALPAGGAHIRVTFQVDADGLLSVTAMEKSTGVEASIQVKPSYGLTDSEIASMIKDSMSYAEQDVKARMLAEQKVEAARVLESLHGALAADAALLSAAERQVIDDAAAHLSEVAQGDDVDAIEQAIKNVDKQTQDFAARRMDQSVRRALKGHSVDEV"}}, "key": {"[1]": {"molecular_target": "Isu1-GST fusion protein (S. cerevisiae) (UniProt Q03020)", "sequence (Q03020 28-165)": "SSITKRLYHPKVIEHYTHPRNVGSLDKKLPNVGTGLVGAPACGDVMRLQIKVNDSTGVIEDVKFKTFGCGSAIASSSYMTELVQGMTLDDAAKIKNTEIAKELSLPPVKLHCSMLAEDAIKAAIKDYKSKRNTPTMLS", "test": "pull-down; Isu1-GST (30 μM) incubated with increasing Ssq1, 4 mM ADP, PD buffer (40 mM HEPES-KOH pH 7.5, 100 mM KCl, 1 mM DTT, 10 mM MgCl2, 5% glycerol), 15 min at 25 °C, then glutathione resin; SDS-PAGE, Coomassie, densitometry, Michaelis-Menten hyperbolic fit"}, "[2]": {"substrate": "Nc1ncnc2c1ncn2[C@@H]1O[C@H](COP(=O)(O)OP(=O)(O)OP(=O)(O)O)[C@@H](O)[C@H]1O", "test": "steady-state ATPase, PK/LDH NADH-coupled assay", "assay_type": "biochemical, Saccharomyces cerevisiae", "conditions": "2.5 μM Ssq1 with 2.5 μM nucleotide exchange factor Mge1, no Isu1 or Hsc20 mentioned, pH 7.5, 150 mM KCl, 20 mM Mg acetate, 23 °C"}, "Ssq1 (S. cerevisiae) [3]": {"molecular_target": "T1, Ssq1 (S. cerevisiae)", "T1 sequence (Q05931 whole entry, looked up)": "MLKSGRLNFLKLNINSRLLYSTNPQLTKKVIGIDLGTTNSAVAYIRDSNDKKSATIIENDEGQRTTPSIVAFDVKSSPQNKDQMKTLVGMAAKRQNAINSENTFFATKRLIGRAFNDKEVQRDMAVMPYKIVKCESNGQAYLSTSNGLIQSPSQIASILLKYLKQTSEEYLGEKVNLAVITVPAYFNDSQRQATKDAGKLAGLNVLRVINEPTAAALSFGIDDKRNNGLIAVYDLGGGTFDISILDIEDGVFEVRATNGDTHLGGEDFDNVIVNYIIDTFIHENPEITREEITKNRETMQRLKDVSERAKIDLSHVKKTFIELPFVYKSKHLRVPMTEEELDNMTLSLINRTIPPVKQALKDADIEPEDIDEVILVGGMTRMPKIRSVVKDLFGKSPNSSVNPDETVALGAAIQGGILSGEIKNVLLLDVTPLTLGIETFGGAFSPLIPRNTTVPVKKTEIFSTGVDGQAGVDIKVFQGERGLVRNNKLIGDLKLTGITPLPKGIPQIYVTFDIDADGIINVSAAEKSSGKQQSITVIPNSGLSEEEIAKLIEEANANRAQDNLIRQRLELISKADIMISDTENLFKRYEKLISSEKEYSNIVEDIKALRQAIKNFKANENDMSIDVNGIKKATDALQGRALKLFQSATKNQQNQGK", "conditions": "scale: fold"}, "Ssq1 (S. cerevisiae) [4]": {"molecular_target": "T1, Ssq1 (S. cerevisiae)"}, "purified protein": {"substrate": "Nc1ncnc2c1ncn2[C@@H]1O[C@H](COP(=O)(O)OP(=O)(O)OP(=O)(O)O)[C@@H](O)[C@H]1O", "test": "purified protein", "conditions": "1 μM HscA, no exchange factor, no IscU or HscB mentioned, pH 7.5, 150 mM KCl, 20 mM Mg acetate, 23 °C"}}}
{"molecule": "Ssq1 (natural protein)", "values": [{"measurement": "Km (with ADP)", "setting": "[1]", "value": 2.18, "unit": "µM"}]}
{"molecule": "B1", "values": [{"measurement": "Km", "setting": "[2]", "value": 25, "unit": "µM"}]}
{"molecule": "B2", "values": [{"measurement": "apparent Km of Hsc20 (0.0025-0.25 μM) for stimulating the pull-down of Ssq1 with Isu1-GST in ATP, compared with that of HscB", "setting": "Ssq1 (S. cerevisiae) [3]", "value": 4}, {"measurement": "apparent Km of Hsc20 for stimulation of Ssq1 ATPase activity (radioactive assay, 10 μM Isu1, 0.5 μM Mge1), compared with that of HscB for HscA (fold (affinity, against HscA for HscB))", "setting": "Ssq1 (S. cerevisiae) [4]", "value": 8}]}
{"molecule": "B3", "values": [{"measurement": "Km", "setting": "purified protein", "value": 28, "unit": "µM"}]}
